The text below walks through data of patent publication US20220362394A1 (SUTRO BIOPHARMA, published 2022).

In assay [1] the target is cynomolgus BCMA on cells (cynomolgus monkey, UniProt Q02223 1-184 (human entry)). Kind of assay: FACS, 293T-cynoBCMA cells. Here is the method:
(§1) Variants for which sufficient protein was purified in secondary screening were tested in a fluorescence-activated cell sorting (FACS) cell-binding assay. […] 6-12 point dilutions of anti-BCMA variants starting from concentrations of about 100-200 nM antibody were dispensed into each well using a BioMekFX (Beckman Coulter). Cells were then incubated on ice for 1 hr, washed with FACS buffer and incubated for 1 hr on ice with […] FACS buffer containing 2.5 μg/ml Alexa647-conjugated Goat Anti-Human IgG dispensed using BioMekFX (Beckman Coulter). Cells were then washed 2× with FACS buffer and fixed for 10 minutes in […] PBS with 2% paraformaldehyde (PFA) prior to fluorescence detection. Samples were acquired using a Beckton Dickinson LSRII FACS. Geometric Mean Fluorescence Intensity of BCMA antibody binding was analyzed using FlowJo® software (Tree Star, Inc.).
Background: A flow cytometer gives signals particle by particle.

Assay [2] has as its target T1, human BCMA-Fc (human, UniProt Q02223 1-54).
T1 construct: Bought from R&D Systems; also called huBCMA-Fc; not shown: Fc part not described
T1 sequence: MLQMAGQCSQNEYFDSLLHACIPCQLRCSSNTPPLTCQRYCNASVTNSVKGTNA
Kind of assay: SPR Biacore, antibody captured, 25 C. How it is done:
(§2) Anti-Fab or anti-Fc polyclonal antibodies were immobilized onto a CM5 chip (GE Life Sciences) using amine coupling chemistry (from Amine Coupling Kit, GE Life Sciences). The immobilization steps were carried out at a flow rate of 25 μL/min in 1×HBS-EP+ buffer (GE Life Sciences; 10× Stock diluted before use). The sensor surfaces were activated for 7 min with a mixture of NHS (0.05 M) and EDC (0.2 M). The anti-Fab or anti-Fc antibodies were injected over all 4 flow cells at a concentration of 25 μg/ml in 10 mM sodium acetate, pH 4.5, for 7 min. Ethanolamine (1 M, pH 8.5) was injected for 7 min to block any remaining activated groups.
(§3) Off-rate and kinetic binding experiments were performed at 25° C. using 1×HBS-EP+ buffer. […] After capturing ligand (antibody) on the anti-Fab or anti-Fc surface, the analyte (human BCMA-Fc, cyno BCMA-Fc, or human BCMA from R&D Systems, custom protein production, or Sigma Aldrich, respectively) was bound for 180 seconds, followed by a 600 second dissociation phase at a flow rate of 50 μL/min. Between each ligand capture and analyte binding cycle, regeneration was carried out using 2 injections of 10 mM glycine pH 2.0 for 30 seconds at 30 μL/min, followed by a 30 second buffer wash step.
(§4) The data was fit with the Biacore T200 Evaluation software, using a 1-1 Langmuir binding model. KD (affinity, nM) was determined as a ratio of the kinetic rate constants calculated from the fits of the association and dissociation phases.
A general note: SPR reads the build-up and loss of mass on a sensor chip optically.

The target of assay [3] is T2, human BCMA on cells (human, UniProt Q02223 1-184).
T2 construct: also called hBCMA; BCMA on NCI-H929, ARP-1, OPM-2, U266B1, MM.1S, RPMI-8226 cells
T2 sequence: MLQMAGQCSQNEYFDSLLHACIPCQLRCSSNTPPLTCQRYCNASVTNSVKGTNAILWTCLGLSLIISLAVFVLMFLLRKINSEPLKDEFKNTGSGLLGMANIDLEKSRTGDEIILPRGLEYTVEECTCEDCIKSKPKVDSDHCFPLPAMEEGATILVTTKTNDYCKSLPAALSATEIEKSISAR
Kind of assay: FACS, NCI-H929 cells. How it is done:
as §1

Assay [4] deals with T3, cyno BCMA-Fc (cynomolgus monkey, UniProt Q02223 1-54 (human entry)).
T3 construct: Custom protein production; also called cynomolgus BCMA-Fc; not shown: Fc part not described
Kind of assay: SPR Biacore, antibody captured, 25 C. How it is done: as §2, §3, §4

cynomolgus BCMA on cells, sequence (Q02223 other isoform, or with tags, fused parts or gaps): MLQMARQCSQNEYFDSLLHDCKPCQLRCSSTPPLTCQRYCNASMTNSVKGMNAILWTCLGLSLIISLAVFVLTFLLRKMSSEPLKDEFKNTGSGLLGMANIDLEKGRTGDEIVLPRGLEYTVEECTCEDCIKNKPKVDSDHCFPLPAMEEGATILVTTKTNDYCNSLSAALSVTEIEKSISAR

B1: 2137-C07 (antibody, V domains shown)
VH: EVQLVESGGGLVQPGGSLRLSCAASGFNISGSGIHWVRQAPGKGLEWVGFINPAGGYTDYADSVKGRFTISADTSKNTAYLQMNSLRAEDTAVYYCARDYVYQYWTYVLDYWGQGTLVTVSS
VL: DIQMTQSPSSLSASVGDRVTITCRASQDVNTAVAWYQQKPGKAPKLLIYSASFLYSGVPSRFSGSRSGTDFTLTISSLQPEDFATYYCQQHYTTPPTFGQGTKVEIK
notes: IgG1 with His/FLAG tag, cell-free expressed, trastuzumab LC; also called Antibody 1
In assay [1], B1 showed a Bmax of 18500 MFI and a Kd of 10.1 nM. In assay [2], this molecule displayed a Kd of 1.63 nM, a dissociation rate constant (koff) of 0.000745 s⁻¹ and an on-rate constant (kon) of 457000 M⁻¹ s⁻¹.

B2: 2265-F02 (antibody, V domains shown)
VH: EVQLVESGGGLVQPGGSLRLSCAASGFNISAPGIHWVRQAPGKGLEWVGFINPAGGYTDYADSVKGRFTISADTSKNTAYLQMNSLRAEDTAVYYCARDYIRQYWTYVLDYWGQGTLVTVSS
VL: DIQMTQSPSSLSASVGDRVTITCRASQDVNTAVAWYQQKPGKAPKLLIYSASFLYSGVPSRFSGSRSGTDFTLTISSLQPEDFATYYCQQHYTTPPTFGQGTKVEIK
notes: also called Antibody 4; Antibody 2265-F02
Turning to B2, in assay [1], the Bmax was 23800 MFI and the equilibrium dissociation constant (Kd) turned out to be 6.2 nM. In assay [3], the Bmax is 11700 MFI and the Kd stood at 5.2 nM. In assay [4], this molecule gave a Kd of 3.68 nM, a koff of 0.00116 s⁻¹ and a kon of 315000 M⁻¹ s⁻¹. In assay [2], this molecule had an equilibrium dissociation constant (Kd) of 0.499 nM, a dissociation rate constant (koff) of 0.000293 s⁻¹ and an association rate constant (kon) of 587000 M⁻¹ s⁻¹.

B3: 2265-B06 (antibody, V domains shown)
VH: EVQLVESGGGLVQPGGSLRLSCAASGFNIRVSGIHWVRQAPGKGLEWVGFINPAGGYTDYADSVKGRFTISADTSKNTAYLQMNSLRAEDTAVYYCARDYVQAYWTYVLDYWGQGTLVTVSS
VL: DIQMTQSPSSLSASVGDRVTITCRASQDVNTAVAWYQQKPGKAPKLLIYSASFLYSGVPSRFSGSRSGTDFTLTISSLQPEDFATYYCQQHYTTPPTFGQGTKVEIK
notes: also called Antibody 5
Turning to B3, in assay [1], the Bmax turned out to be 26700 MFI and the Kd amounted to 5.1 nM. In assay [3], this molecule came in with a Bmax of 11600 MFI and a Kd of 4.5 nM. In assay [4], this molecule came in with a dissociation constant (Kd) of 3.67 nM, a koff of 0.0013 s⁻¹ and an association rate constant (kon) of 354000 M⁻¹ s⁻¹. Moreover, in assay [2], the dissociation constant Kd is 0.546 nM, the dissociation rate constant (koff) stood at 0.000385 s⁻¹ and the kon amounted to 705000 M⁻¹ s⁻¹.

B4: 2265-A09 (antibody, V domains shown)
VH: EVQLVESGGGLVQPGGSLRLSCAASGFNIIGPGIHWVRQAPGKGLEWVGFINPAGGYTDYADSVKGRFTISADTSKNTAYLQMNSLRAEDTAVYYCARDYVYNYWTYVLDYWGQGTLVTVSS
VL: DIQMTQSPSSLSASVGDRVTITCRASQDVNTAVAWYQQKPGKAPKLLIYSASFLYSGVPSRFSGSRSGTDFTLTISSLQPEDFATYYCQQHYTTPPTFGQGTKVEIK
notes: also called Antibody 6
In assay [1], B4 had a Bmax of 18500 MFI and a Kd of 3 nM. In assay [3], this molecule yielded a Bmax of 12700 MFI and an equilibrium dissociation constant (Kd) of 10.3 nM. In assay [4], this molecule showed a Kd of 6.43 nM, an off-rate constant (koff) of 0.00173 s⁻¹ and a kon of 270000 M⁻¹ s⁻¹. Also, in assay [2], binding was characterised by a dissociation constant (Kd) of 0.589 nM, the koff is 0.000318 s⁻¹ and the kon worked out at 539000 M⁻¹ s⁻¹.

B5: 2265-D11 (antibody, V domains shown)
VH: EVQLVESGGGLVQPGGSLRLSCAASGFNISGPGIHWVRQAPGKGLEWVGFINPAAGYTDYADSVKGRFTISADTSKNTAYLQMNSLRAEDTAVYYCARDYIYQYWTYVLDYWGQGTLVTVSS
VL: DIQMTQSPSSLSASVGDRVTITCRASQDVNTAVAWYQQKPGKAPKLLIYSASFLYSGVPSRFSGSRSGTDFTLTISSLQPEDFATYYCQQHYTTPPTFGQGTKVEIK
notes: also called Antibody 9
For B5, in assay [1], the Bmax was 21300 MFI and the Kd was 3.8 nM. In assay [3], the Bmax was 10900 MFI and the dissociation constant (Kd) stood at 4 nM. Besides, in assay [4], the Kd worked out at 3.24 nM, the off-rate constant (koff) came out at 0.00116 s⁻¹ and the on-rate (kon) came to 358000 M⁻¹ s⁻¹. Also, in assay [2], the affinity, expressed as Kd, was 0.701 nM; the koff stood at 0.000537 s⁻¹; the on-rate constant (kon) is 766000 M⁻¹ s⁻¹.

B6: 2265-C02 (antibody, V domains shown)
VH: EVQLVESGGGLVQPGGSLRLSCAASGFNIGVSGIHWVRQAPGKGLEWVGFINPAGGYTDYAGSVKGRFTISADTSKNTAYLQMNSLRAEDTAVYYCARDYIYSYWTYVLDYWGQGTLVTVSS
VL: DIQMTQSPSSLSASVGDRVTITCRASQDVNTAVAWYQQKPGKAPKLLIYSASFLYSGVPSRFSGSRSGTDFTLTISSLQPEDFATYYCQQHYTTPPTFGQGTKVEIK
notes: also called Antibody 12
In assay [1], B6 gave a Bmax of 24100 MFI and a Kd of 4.9 nM. For the same molecule, in assay [3], the Bmax is 11500 MFI and the affinity, expressed as Kd, was 4.4 nM. In addition, in assay [4], the equilibrium dissociation constant (Kd) turned out to be 4.22 nM, the dissociation rate constant (koff) amounted to 0.00137 s⁻¹ and the kon stood at 325000 M⁻¹ s⁻¹. In addition, in assay [2], the Kd amounted to 0.758 nM, the koff was 0.000567 s⁻¹ and the on-rate constant (kon) came out at 747000 M⁻¹ s⁻¹.

B7: 2265-D05 (antibody, V domains shown)
VH: EVQLVESGGGLVQPGGSLRLSCAASGFNISGPGIHWVRQAPGKGLEWVGFINPAAGYTDYADSVKGRFAISADTSKNTAYLQMNSLRAEDTAVYYCARDFVYAYWTYVLDYWGQGTLVTVSS
VL: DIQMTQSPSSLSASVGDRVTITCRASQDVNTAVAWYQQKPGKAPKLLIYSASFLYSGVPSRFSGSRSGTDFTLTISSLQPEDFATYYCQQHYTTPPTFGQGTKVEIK
notes: also called Antibody 10
In assay [1], B7 came in with a Bmax of 21900 MFI and a Kd of 2.5 nM. Also, in assay [3], the Bmax was 9620 MFI and the Kd amounted to 4.4 nM. In assay [4], the Kd stood at 4.53 nM, the dissociation rate constant (koff) came to 0.00147 s⁻¹ and the kon turned out to be 325000 M⁻¹ s⁻¹. In assay [2], the Kd is 0.702 nM, the koff is 0.000485 s⁻¹ and the association rate constant (kon) turned out to be 691000 M⁻¹ s⁻¹.

B8: 2265-A06 (antibody, V domains shown)
VH: EVQLVESGGGLVQPGGSLRLSCAASGFNIYRSGIHWVRQAPGKGLEWVGFINPAGGYTDYADSVKGRFTISADTSKNTAYLQMNSLRAEDTAVYYCARDYVPQYWTYVLDYWGQGTLVTVSS
VL: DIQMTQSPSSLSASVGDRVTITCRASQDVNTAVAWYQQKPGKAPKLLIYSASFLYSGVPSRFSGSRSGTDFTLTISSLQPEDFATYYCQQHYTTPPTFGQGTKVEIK
notes: also called Antibody 13
Consider B8, for which, in assay [1], the Bmax was 22100 MFI and the Kd came to 3.8 nM. In assay [3], this molecule yielded a Bmax of 11100 MFI and a Kd of 5.7 nM. Further, in assay [4], binding was put at a Kd of 6.24 nM, the dissociation rate constant (koff) was 0.00156 s⁻¹ and the kon was found to be 249000 M⁻¹ s⁻¹. In assay [2], this molecule showed a Kd of 0.789 nM, a koff of 0.000392 s⁻¹ and a kon of 497000 M⁻¹ s⁻¹.

B9: 2265-C03 (antibody, V domains shown)
VH: EVQLVESGGGLVQPGGSLRLSCAAPGFNISVPGIHWVRQAPGKGLEWVGFINPAGGYTDYADSVKGRFTISADTSKNTAYLQMNSLRAEDTAVYYCARDYVPQYWTYVLDYWGQGTLVTVSS
VL: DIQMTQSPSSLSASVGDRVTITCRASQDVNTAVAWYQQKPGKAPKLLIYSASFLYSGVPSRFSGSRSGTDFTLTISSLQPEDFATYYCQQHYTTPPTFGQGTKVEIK
notes: also called Antibody 11
With B9, in assay [3], the Bmax came out at 12500 MFI and the affinity, expressed as Kd, was 5.3 nM. In assay [4], the Kd was determined as 5.83 nM, the dissociation rate constant (koff) is 0.00177 s⁻¹ and the kon was 304000 M⁻¹ s⁻¹. In assay [2], this molecule gave a Kd of 0.724 nM, a koff of 0.000425 s⁻¹ and a kon of 587000 M⁻¹ s⁻¹.

B10: 2265-E02 (antibody, V domains shown)
VH: EVQLVESGGGLVQPGGSLRLSCAASGFNIYVSGIHWVRQAPGKGLEWVGFINPAGGYTDYADSVKGRFTISADTSKNTAYLQTNSLRAEDTAVYYCARDYVYQYWTYVLDYWGQGTLVTVSS
VL: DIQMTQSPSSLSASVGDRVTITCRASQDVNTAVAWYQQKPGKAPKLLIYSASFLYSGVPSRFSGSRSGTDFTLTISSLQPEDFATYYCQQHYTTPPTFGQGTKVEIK
notes: also called Antibody 8
As to B10, in assay [1], the Bmax was determined as 21800 MFI and the dissociation constant (Kd) was 5 nM. In addition, in assay [3], the Bmax was 12200 MFI and the dissociation constant (Kd) worked out at 4.5 nM. For the same molecule, in assay [4], binding was put at a Kd of 5.75 nM, the koff turned out to be 0.00153 s⁻¹ and the on-rate (kon) turned out to be 266000 M⁻¹ s⁻¹. In assay [2], this molecule registered an equilibrium dissociation constant (Kd) of 0.67 nM, a koff of 0.000383 s⁻¹ and an association rate constant (kon) of 571000 M⁻¹ s⁻¹.

B11: 9A8 (antibody, V domains shown)
VH: AVTLDESGGGLQTPGGTLSLVCKASGFTFSSFNMFWVRQAPGKGLEWVAYIRNDGNSASYGPAVKGRATISRDNGQSTVRLQLNNLRAEDTATYYCAKTTCIGSGGCIDTWGHGTEVIVSS
VL: ALTQPSSVSANPGETVKITCSGGSSDYGWFQQKSPGSAPVTVIYSNNQRPSGIPSRFSGSKSGSTGTLTITGVQAEDEAIYYCANVDYTDDVFGAGTTLTVL
notes: Chicken HybriFree-derived antibody; also called Antibody 30
With B11, in assay [1], the Bmax came out at 17800 MFI and the Kd worked out at 8.87 nM. In assay [3], this molecule showed a Bmax of 21100 MFI and a Kd of 33 nM.

B12: 10G5 (antibody, V domains shown)
VH: AVTLDESGGGLQTPGGVLSLVCKASGFTFSSFNMFWVRQAPGKGLEWVAYISNDGSSTSYGPAVKGRATISRDNGQSTVRLQLNNLRAEDTATYFCAKTTCIGSGGCIDTWGHGTEVIVSS
VL: ALTQPSSVSANPGETVKITCSGGNYDYGWYQQKSPGSAPVTLIYYNNKRPSDIPSRFSGSKSGSTGTLTITGVQAEDEAIYYCANVDSTDDVFGAGTTLTVL
notes: Chicken HybriFree-derived antibody; also called Antibody 31
For the molecule B12, in assay [1], the Bmax turned out to be 24400 MFI and the Kd was found to be 7.33 nM. For the same molecule, in assay [3], the Bmax turned out to be 25800 MFI and the dissociation constant (Kd) was determined as 65.8 nM.

For orientation: Kd means the free concentration of one partner at which half of the binding sites on the other are occupied at equilibrium, for simple one-to-one binding. A high value points to lower affinity. Broadly, the koff is a measure of how fast the partners let go of each other. In general, kon refers to the second-order rate constant of association. Read a low kon as slow association.
